Experimental data as given in the RNAGym collection of RNA variant scans (doi:10.1093/molbev/msab373).

B1: Azoarcus group I ribozyme (parent)
chain: GUGCCUUGCGCCGGGAAACCACGCAAGGGAUGGUGUCAAAUUCGGCGAAACCUAAGCGCCCGCCCGGGCGUAUGGCAACGCCGAGCCAAGCUUCGGCGCCUGCGCCGAUGAAGGUGUAGAGACUAGACGGCACCCACCUAAGGCAAACGCUAUGGUGAAGGCAUAGUCCAGGGAGUGGCGAAAGUCACACAAACCGG

Variants of: B1
Test: reverse-splicing fitness (ratio to wild type); higher = more active; in vitro selection; Mg2+ level not given
Summary of the method: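 An in vitro group I ribozyme library with randomized positions was T7-transcribed and gel-purified. In triplicate, 10 pmol RNA in EPPS pH 7.5 was reacted with 50 pmoles of a 30-nt RNA substrate for 1 h at 37 °C across several added MgCl2 levels (1–48 mM), then stopped with EDTA. Products were reverse transcribed from a substrate-complementary primer, PCR-amplified and sequenced (HiSeq 4000). Fitness is a variant's read proportion after selection over that before, normalised to wild type.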

**Q.** For GUGCCUUGCGCCGGGAAACCACGCAAGGGAUGGUGUCAAAUUCGGCGAAACCUAAGCGCCCGCCCGGGCGUAUGGCAACGCCGAGCCAAGCUUCGGCGCCUGCGCCGAUGUAGGUGUAGAGACUAGACGGCACCCACCUAAGGCGAACGUUAUGGUGAAGGCAUAGUCGAGGGAGCGGCGAAAGUCACACAAACCGG, which reverse-splicing fitness is on record?
**A.** 0.0269

**Q.** Which reverse-splicing fitness does the source give for GUGCCUUGCGCCGGGAAACCACGCAAGGGAUGGUGUCAAAUUCGGCGAAACCUAAGCGCCCGCCCGGGCGUAUGGCAACGCCGAGCCAAGCUUCGGCGCCUGCGCCGAUGUAGGUGUAGAGACUAGACGGCACCCACCUAAGGCGAACGUUAUGGUGAAGGCAUAGUCGAGGGAGAGGCGAAAGUCACACAAACCGG here?
**A.** 0.0164

**Q.** For GUGCCUUGCGCCGGGAAACCACGCAAGGGAUGGUGUCAAAUUCGGCGAAACCUAAGCGCCCGCCCGGGCGUAUGGCAACGCCGAGCCAAGCUUCGGCGCCUGCGCCGAUGUAGGUGUAGAGACUAGACGGCACCCACCUAAGGCGAACGUUAUGGUGAAGGCAUAGUCGAGGGAGGGGCGAAAGUCACACAAACCGG, which reverse-splicing fitness is on record?
**A.** 0.00671

**Q.** With GUGCCUUGCGCCGGGAAACCACGCAAGGGAUGGUGUCAAAUUCGGCGAAACCUAAGCGCCCGCCCGGGCGUAUGGCAACGCCGAGCCAAGCUUCGGCGCCUGCGCCGAUGUAGGUGUAGAGACUAGACGGCACCCACCUAAGGCGAACGGUAUGGUGAAGGCAUAGUCAAGGGAGCGGCGAAAGUCACACAAACCGG as the variant, how does the reverse-splicing fitness read?
**A.** 0.0121

**Q.** With GUGCCUUGCGCCGGGAAACCACGCAAGGGAUGGUGUCAAAUUCGGCGAAACCUAAGCGCCCGCCCGGGCGUAUGGCAACGCCGAGCCAAGCUUCGGCGCCUGCGCCGAUGUAGGUGUAGAGACUAGACGGCACCCACCUAAGGCGAACGGUAUGGUGAAGGCAUAGUCAAGGGAGGGGCGAAAGUCACACAAACCGG as the variant, how does the reverse-splicing fitness read?
**A.** 0.00707

**Q.** Which reverse-splicing fitness does the source give for GUGCCUUGCGCCGGGAAACCACGCAAGGGAUGGUGUCAAAUUCGGCGAAACCUAAGCGCCCGCCCGGGCGUAUGGCAACGCCGAGCCAAGCUUCGGCGCCUGCGCCGAUGUAGGUGUAGAGACUAGACGGCACCCACCUAAGGCGAACGGUAUGGUGAAGGCAUAGUCAAGGGAGAGGCGAAAGUCACACAAACCGG here?
**A.** 0.0118

**Q.** For GUGCCUUGCGCCGGGAAACCACGCAAGGGAUGGUGUCAAAUUCGGCGAAACCUAAGCGCCCGCCCGGGCGUAUGGCAACGCCGAGCCAAGCUUCGGCGCCUGCGCCGAUGUAGGUGUAGAGACUAGACGGCACCCACCUAAGGCGAACGAUAUGGUGAAGGCAUAGUCCAGGGAGGGGCGAAAGUCACACAAACCGG, which reverse-splicing fitness is on record?
**A.** 0.0951

**Q.** For GUGCCUUGCGCCGGGAAACCACGCAAGGGAUGGUGUCAAAUUCGGCGAAACCUAAGCGCCCGCCCGGGCGUAUGGCAACGCCGAGCCAAGCUUCGGCGCCUGCGCCGAUGUAGGUGUAGAGACUAGACGGCACCCACCUAAGGCGAACGAUAUGGUGAAGGCAUAGUCCAGGGAGAGGCGAAAGUCACACAAACCGG, which reverse-splicing fitness is on record?
**A.** 0.238

**Q.** For GUGCCUUGCGCCGGGAAACCACGCAAGGGAUGGUGUCAAAUUCGGCGAAACCUAAGCGCCCGCCCGGGCGUAUGGCAACGCCGAGCCAAGCUUCGGCGCCUGCGCCGAUGUAGGUGUAGAGACUAGACGGCACCCACCUAAGGCGAACGAUAUGGUGAAGGCAUAGUCCAGGGAGCGGCGAAAGUCACACAAACCGG, which reverse-splicing fitness is on record?
**A.** 0.299

**Q.** Which reverse-splicing fitness does the source give for GUGCCUUGCGCCGGGAAACCACGCAAGGGAUGGUGUCAAAUUCGGCGAAACCUAAGCGCCCGCCCGGGCGUAUGGCAACGCCGAGCCAAGCUUCGGCGCCUGCGCCGAUGUAGGUGUAGAGACUAGACGGCACCCACCUAAGGCGAACGGUAUGGUGAAGGCAUAGUCCAGGGAGGGGCGAAAGUCACACAAACCGG here?
**A.** 0.0223

**Q.** Which reverse-splicing fitness does the source give for GUGCCUUGCGCCGGGAAACCACGCAAGGGAUGGUGUCAAAUUCGGCGAAACCUAAGCGCCCGCCCGGGCGUAUGGCAACGCCGAGCCAAGCUUCGGCGCCUGCGCCGAUGUAGGUGUAGAGACUAGACGGCACCCACCUAAGGCGAACGGUAUGGUGAAGGCAUAGUCCAGGGAGCGGCGAAAGUCACACAAACCGG here?
**A.** 0.171

**Q.** With GUGCCUUGCGCCGGGAAACCACGCAAGGGAUGGUGUCAAAUUCGGCGAAACCUAAGCGCCCGCCCGGGCGUAUGGCAACGCCGAGCCAAGCUUCGGCGCCUGCGCCGAUGUAGGUGUAGAGACUAGACGGCACCCACCUAAGGCGAACGGUAUGGUGAAGGCAUAGUCCAGGGAGAGGCGAAAGUCACACAAACCGG as the variant, how does the reverse-splicing fitness read?
**A.** 0.0997

**Q.** For GUGCCUUGCGCCGGGAAACCACGCAAGGGAUGGUGUCAAAUUCGGCGAAACCUAAGCGCCCGCCCGGGCGUAUGGCAACGCCGAGCCAAGCUUCGGCGCCUGCGCCGAUGUAGGUGUAGAGACUAGACGGCACCCACCUAAGGCGAACGUUAUGGUGAAGGCAUAGUCAAGGGAGCGGCGAAAGUCACACAAACCGG, which reverse-splicing fitness is on record?
**A.** 0.017

**Q.** With GUGCCUUGCGCCGGGAAACCACGCAAGGGAUGGUGUCAAAUUCGGCGAAACCUAAGCGCCCGCCCGGGCGUAUGGCAACGCCGAGCCAAGCUUCGGCGCCUGCGCCGAUGUAGGUGUAGAGACUAGACGGCACCCACCUAAGGCGAACGUUAUGGUGAAGGCAUAGUCAAGGGAGAGGCGAAAGUCACACAAACCGG as the variant, how does the reverse-splicing fitness read?
**A.** 0.0155

**Q.** With GUGCCUUGCGCCGGGAAACCACGCAAGGGAUGGUGUCAAAUUCGGCGAAACCUAAGCGCCCGCCCGGGCGUAUGGCAACGCCGAGCCAAGCUUCGGCGCCUGCGCCGAUGUAGGUGUAGAGACUAGACGGCACCCACCUAAGGCGAACGUUAUGGUGAAGGCAUAGUCAAGGGAGGGGCGAAAGUCACACAAACCGG as the variant, how does the reverse-splicing fitness read?
**A.** 0.00732
